Laboratory results from patent US20190062420A1 (Janssen / Centocor, published 2019).

Tests used:
FcγRIIB protein = target: T1, FcγRIIB protein (human, UniProt P31994 43-217, biotinylated (SureLINK Biotin Kit) in the ELISA of Example 1); test: ELISA; bt-FcγRIIB on streptavidin plate, purified FN3 domain titrated
T1 construct: Soluble/recombinant antigen used in ELISA; also called bt-FcγRIIB; recombinant FcγRIIB protein
T1 sequence: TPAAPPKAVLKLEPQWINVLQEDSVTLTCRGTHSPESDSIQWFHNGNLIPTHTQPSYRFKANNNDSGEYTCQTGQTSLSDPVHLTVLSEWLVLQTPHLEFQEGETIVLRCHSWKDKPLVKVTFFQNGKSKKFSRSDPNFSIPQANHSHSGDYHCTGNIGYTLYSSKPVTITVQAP
Method: (§1) For primary ELISA, Maxisorp 96-well plates were loaded with 100 μL per well of streptavidin (Promega; 5 μg/mL in PBS) and then held at 4° C. overnight. The next day, the streptavidin-coated plates were washed 3×TBST and then blocked with 250 μL Starting Block T20 (Pierce-cat#37543). After a 1 h incubation, all plates were washed 3 times with 1×TBST, loaded with 100 μL per well of either bt-FcγRIIA, bt-FcγRIIB, or bt-HSA (negative screen) all at 1 μg/mL, and held at room temperature for 1 h. The previously lysed FN3 domains were centrifuged at 3500 rpm for 10 minutes, diluted 1:10 in Starting Block T20 and added 100 μL each to the plates. After a 1 h incubation at room temperature, the plates were washed 3× with 1×TBST and the wells were loaded with 100 μL of a HRP conjugated rabbit polyclonal antibody against tencon 27. After a final 1 h incubation at room temperature, the plates were washed 3× with 1×TBST, loaded with 100 μL per well of the chemiluminescence substrate POD (Roche), and read in a Perkin Elmer Envision plate reader. Positive binding colonies (those clones showing 5-fold higher binding to FcγRIIA or FcγRIIB when compared to HSA) were subjected to Sanger sequencing and identified coding sequences were in silico translated to amino acid sequences. Sequence unique FN3 domains were expressed in BL21 cells and purified using nickel sepharose plates. Antigen binding of purified FN3 domains in a dilution series was performed. Specifically, in an ELISA format, Streptavidin coated plates (Promega #Z7041) were used to capture 50 μL of 1 μg/mL of either bt-FcγRIIB, bt-FcγRIIA, or as a negative control against sticky FN3 domains bt-HSA. To this FN3 domains were added at 10 μM then diluted 1:5 down to 128 pM, and detected for binding using a HRP conjugated rabbit polyclonal against tencon 27 and POD substrate (Roche #11582950001). Binding curves and EC50 values were calculated using X=log(x) transformation and non-linear regression (curved slope) calculations of Prism GraphPad.

FcγRIIA protein = target: T2, FcγRIIA protein (human, UniProt P12318 36-217, biotinylated (SureLINK Biotin Kit) in the ELISA of Example 1); test: ELISA; bt-FcγRIIA on streptavidin plate, purified FN3 domain titrated
T2 construct: Soluble/recombinant antigen used in ELISA; also called bt-FcγRIIA; recombinant FcγRIIA protein
T2 sequence: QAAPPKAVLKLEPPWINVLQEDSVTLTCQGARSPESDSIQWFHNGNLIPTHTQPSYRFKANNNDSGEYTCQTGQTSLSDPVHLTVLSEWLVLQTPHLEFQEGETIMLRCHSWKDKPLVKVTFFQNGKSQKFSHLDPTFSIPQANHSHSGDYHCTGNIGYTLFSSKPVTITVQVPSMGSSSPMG
Method: as §1

[1] = target: T3, human FcγRIIB (NM_004001) expressed on cells (human, UniProt P31994 43-310); test: flow cytometry; Raji cells (express predominantly FcγRIIB)
T3 construct: Transiently expressed on Expi293F cells; also called Expi293F FcγRIIB; HEK293F cells expressing FcγRIIB
T3 sequence: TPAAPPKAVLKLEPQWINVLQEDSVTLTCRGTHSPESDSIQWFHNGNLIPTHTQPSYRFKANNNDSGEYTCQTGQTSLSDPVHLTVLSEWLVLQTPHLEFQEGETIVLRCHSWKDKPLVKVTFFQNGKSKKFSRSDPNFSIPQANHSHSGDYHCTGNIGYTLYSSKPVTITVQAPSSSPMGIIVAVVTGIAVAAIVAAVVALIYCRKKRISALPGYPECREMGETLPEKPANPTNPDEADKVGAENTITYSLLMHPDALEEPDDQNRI

[2] = target: T4, human FcγRIIA (NM_021642) expressed on cells (human, UniProt P12318 36-317); test: flow cytometry; Expi293F cells transfected with FcγRIIA
T4 construct: Transiently expressed on Expi293F cells; also used here for FcγRIIA on human macrophages in the ADCP assay; also called Expi293F FcγRIIA; HEK293F cells expressing FcγRIIA
T4 sequence: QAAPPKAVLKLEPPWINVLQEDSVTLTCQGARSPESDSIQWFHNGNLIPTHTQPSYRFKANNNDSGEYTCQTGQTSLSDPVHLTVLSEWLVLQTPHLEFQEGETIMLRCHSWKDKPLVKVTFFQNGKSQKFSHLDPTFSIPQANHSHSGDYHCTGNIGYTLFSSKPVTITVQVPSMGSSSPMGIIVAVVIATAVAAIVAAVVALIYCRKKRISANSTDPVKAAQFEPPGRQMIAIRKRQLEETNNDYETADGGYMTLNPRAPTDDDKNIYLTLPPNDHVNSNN
Method: (§2) Plasmids expressing cDNAs encoding human FcγRI (NM_000566) (SEQ ID NO: 44), FcγRIIA (NM_021642) (SEQ ID NO: 2), FcγRIIB (NM_004001) (SEQ ID NO: 3), and FcγRIIIA (NM_000569) (SEQ ID NO: 45) (Origene) were transiently transfected into Expi293F cells by ExpiFectamine293 transfection kit (Life Technologies). Flow cytometry assays were performed 48 h after transfection.
(§3) 2×10⁵ cells per well were seeded in 96-well plate and blocked in BSA Stain Buffer (BD Biosciences, San Jose, USA) for 30 min at 4° C. Cells were incubated with test mAbtyrin on ice for 1.5 h at 4° C. After being washed twice with BSA stain buffer, the cells were incubated with R-PE labeled anti-human or anti-mouse IgG secondary antibody (Jackson Immunoresearch Laboratories) for 45 min at 4° C. The cells were washed twice in stain buffer and then resuspended in 150 μL of Stain Buffer containing 1:200 diluted DRAQ7 live/dead stain (Cell Signaling Technology, Danvers, USA). PE and DRAQ7 signals of the stained cells were detected by Miltenyi MACSQuant flow cytometer (Miltenyi Biotec, Auburn, USA) using B2 and B4 channel respectively. Live cells were gated on DRAQ7 exclusion and the geometric mean fluorescence signals were determined for at least 10,000 live events collected. FlowJo software (Tree Star) was used for analysis. Data was plotted as the logarithm of antibody concentration versus mean fluorescence signals. Nonlinear regression analysis was performed by GraphPad Prism 6 (GraphPad Software, Inc.) and EC₅₀ values were calculated.

[3] = target: T3, human FcγRIIB (NM_004001) expressed on …; test: flow cytometry; Raji cells (express predominantly FcγRIIB); remark: listed apart in the source
Method: as §3
Raji cell is a cell line derived from B cells that express predominantly FcγRIIB. The binding of mAbtyrins on Raji cells were investigated by flow cytometry assay described for testing mAbtyrin binding to FcγR. Binding of the mAbtyrins were detected by flow cytometry using a PE-labeled Goat F(ab′) against Human IgG(γ).

[4] = target: T5, human OX40 expressed on HEK-Blue: OX40 cells (human, UniProt P43489 29-277); test: flow cytometry; HEK-Blue: OX40 cells
T5 construct: also called CD134
T5 sequence: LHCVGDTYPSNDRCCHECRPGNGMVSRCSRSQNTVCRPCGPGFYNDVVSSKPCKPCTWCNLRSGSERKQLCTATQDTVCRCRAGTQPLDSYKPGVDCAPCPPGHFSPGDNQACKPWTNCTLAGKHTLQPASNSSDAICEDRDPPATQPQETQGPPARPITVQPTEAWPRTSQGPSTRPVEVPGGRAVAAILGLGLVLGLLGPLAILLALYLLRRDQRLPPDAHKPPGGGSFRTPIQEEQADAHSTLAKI
Method: as §3
The binding of mAbtyrins on OX40 expressed on cell surface were investigated by flow cytometry assay described for testing mAbtyrin binding to FcγR. A stable HEK-Blue reporter cell line expressing human OX40 (HEK-Blue: OX40) was established by transfection OX40 expression plasmid (pUNO1-hOX40) into HEK-Blue™ Null 1 cells engineered to express a secreted embryonic alkaline phosphatase (SEAP) reporter gene under the control of NF-κB-inducible promoter (IFN-β minimal promoter). mAbtyrins were incubated with HEK-Blue: OX40 cells and the binding was detected by flow cytometry using a PE-labeled Goat F(ab′)₂ against Human IgG(γ).

[5] = target: T3, human FcγRIIB (NM_004001) expressed on …; test: cell-based or functional assay
[6] = target: T3, human FcγRIIB (NM_004001) expressed on …; test: flow cytometry; Expi293F cells transfected with FcγRIIB
Method: as §2, §3

[7] = target: T4, human FcγRIIA (NM_021642) expressed on …; test: cell-based or functional assay

Binder | EC50 (FcγRIIB protein) | EC50 (FcγRIIA protein) | also measured
R2BS39 (designed binder, expressed in E. coli BL21 and purified on nickel sepharose; also called R2BS39 FN3 domain) LPAPKNLVVSRVTEDSARLSWTAPDAAFDSFLIQYQESEKVGEAIVLTVPGSERSYDLTGLKPGTEYTVSIYGVSHGPWYNYGEWRSNPLSAIFTT | 419 nM | 15.5 nM | –
R2BS29 (designed binder, expressed in E. coli BL21 and purified on nickel sepharose; also called R2BS29 FN3 domain; R2B29) LPAPKNLVVSRVTEDSARLSWTAPDAAFDSFPIYYWEYRVGGEAIVLTVPGSERSYDLTGLKPGTEYFVYINGVKGGEESRPLSAIFTT | 3.57 nM | 3.22 nM | –
R2BS26 (designed binder, expressed in E. coli BL21 and purified on nickel sepharose; also called R2BS26 FN3 domain) LPAPKNLVVSRVTEDSARLSWTAPDAAFDSFPIAYIEYWTGGEAIVLTVPGSERSYDLTGLKPGTEYFVWIHGVKGGAWSSPLSAIFTT | 5.3 nM | 6.51 nM | –
R2BS9 (designed binder, expressed in E. coli BL21 and purified on nickel sepharose; also called R2BS9 FN3 domain) LPAPKNLVVSRVTEDSARLSWTAPDAAFDSFWIYYLEYWRGGEAIVLTVPGSERSYDLTGLKPGTEYFVQIHGVKGGQYSYPLSAIFTT | 4.51 nM | 5.49 nM | –
R2BS56 (designed binder, expressed in E. coli BL21 and purified on nickel sepharose; also called R2BS56 FN3 domain; R2B56) LPAPKNLVVSRVTEDSARLSWTAPDAAFDSFSIAYWEYRKGGEAIVLTVPGSERSYDLTGLKPGTEYFVLIYGVKGGWQSKPLSAIFTT | 7.32 nM | 5.5 nM | –
R2BS12 (designed binder, expressed in E. coli BL21 and purified on nickel sepharose; also called R2BS12 FN3 domain; R2B12) LPAPKNLVVSRVTEDSARLSWTAPDAAFDSFLIAYAEYWEGGEAVVLTVPGSERSYDLTGLKPGTEYFVQINGVKGGFWSIPLSAIFTT | 43 nM | 9.6 nM | –
R2BS6 (designed binder, expressed in E. coli BL21 and purified on nickel sepharose; also called R2BS6 FN3 domain) LPAPKNLVVSRVTEDSARLSWTAPDAAFDSFLIQYQESEKVGEAIVLTVPGSERSYDLTGLKPGTEYTVSIYGVQYAAWYLPRHHEASNPLSAIFTT | 7.59 nM | 27.3 nM | –
OX40SF2IgG2sigma_R2BS26_HC-C (bispecific antibody, mAbtyrin: anti-OX40 antibody OX40SF2, effector silent IgG2sigma, with linker and R2BS26 FN3 domain at the C-terminus of the heavy chain; also called mAbtyrin) heavy: QVQLVQSGAEVKKPGSSVKVSCKASGYTFKDYTMHWVRQAPGQGLEWIGGIYPNNGGSTYNQNFKDRVTLTADKSTSTAYMELSSLRSEDTAVYYCARMGYHGPHLDFDVWGQGTTVTVSSASTKGPSVFPLAPCSRSTSESTAALGCLVKDYFPEPVTVSWNSGALTSGVHTFPAVLQSSGLYSLSSVVTVPSSNFGTQTYTCNVDHKPSNTKVDKTVERKCCVECPPCPAPPAAASSVFLFPPKPKDTLMISRTPEVTCVVVDVSAEDPEVQFNWYVDGVEVHNAKTKPREEQFNSTFRVVSVLTVLHQDWLNGKEYKCKVSNKGLPSSIEKTISKTKGQPREPQVYTLPPSREEMTKNQVSLTCLVKGFYPSDIAVEWESNGQPENNYKTTPPMLDSDGSFFLYSKLTVDKSRWQQGNVFSCSVMHEALHNHYTQKSLSLSPGKGGGGGSGGGGSGGGGSGGGGSLPAPKNLVVSRVTEDSARLSWTAPDAAFDSFPIAYIEYWTGGEAIVLTVPGSERSYDLTGLKPGTEYFVWIHGVKGGAWSSPLSAIFTT light: DIQMTQSPSSLSASVGDRVTITCKASQDVGAAVAWYQQKPGKAPKLLIYWASTRHTGVPSRFSGSGSGTDFTLTISSLQPEDFATYYCQQYINYPLTFGGGTKVEIKRTVAAPSVFIFPPSDEQLKSGTASVVCLLNNFYPREAKVQWKVDNALQSGNSQESVTEQDSKDSTYSLSSTLTLSKADYEKHKVYACEVTHQGLSSPVTKSFNRGEC | – | – | fold binding signal over OX40SF2IgG2sigma at 10 µg/mL [1]: ≥ 6 fold; EC50 [2]: 0.323 µg/mL; Binding to Raji cells mean signals at 10 µg/ml [3]: 2290 mean fluorescence signal; EC50 [3]: > 10 µg/mL; Binding to HEK-Blue: OX40 cells (mean signal at 1 µg/ml) [4]: 10200 mean fluorescence signal; % activity at 1 µg/ml with Raji cells (HEK-Blue: OX40 NF-κB reporter, relative to 1 µg/ml OX40 ligand) [5]: 103%; fold of agonism enhancement upon crosslinking (Raji cells) [5]: 25 fold; EC50 [6]: 1.38 µg/mL; % OX40 cell killed by macrophages (ADCP, 1 µg/ml) [7]: 92%
